Target: HLA-A*02:01 (Homo sapiens, UniProt P04439, D140Y/D185E/D98H/E176V/E277Q/G131W/G231S/I119V/I121R/I166T/I218V/L300P/L318F/N151K/N90K/P208A/P217A/Q86G/Q94H/R138H/R169H/T345S)
Experiment: MHC binding assay (UV-ligand exchange, beta2m ELISA)
Conditions: binding to HLA-A*02:01 ranged by peptide exchange yield (UV-ligand exchange, β2m ELISA)
In short: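 UV-cleavable ligand in peptide-MHC complexes was exchanged for test peptide. Exchange yield came from an ELISA on streptavidin-captured complexes diluted 100 fold, detecting β2m with HRP anti-β2m (2 ug/ml, 1 h, 37° C.), TMB, A450.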

Peptide exchange | Substance
“+++” (≥50 = +++) | 531 (YTLPIASSIRL; listed as Homo sapiens) [compound 531]
“+++” (≥50 = +++) | 537 (TLAPGEVLRSV; listed as Homo sapiens) [compound 537]
“++” (≥20% = ++) | 538 (LLLAHIIAL; listed as Homo sapiens) [compound 538]
“+++” (≥50 = +++) | 539 (ALFDAQAQV; listed as Homo sapiens) [compound 539]
“+++” (≥50 = +++) | 541 (SMLEPVPEL; listed as Homo sapiens) [compound 541]
“+++” (≥50 = +++) | 542 (RVWDISTVSSV; listed as Homo sapiens) [compound 542]
“+++” (≥50 = +++) | 543 (GLLPTPITQQASL; listed as Homo sapiens) [compound 543]
“+++” (≥50 = +++) | 544 (LLWDVPAPSL; listed as Homo sapiens) [compound 544]
“+++” (≥50 = +++) | 545 (LLADLLHNV; listed as Homo sapiens) [compound 545]
“+++” (≥50 = +++) | 546 (VMIAGKVAVV; listed as Homo sapiens) [compound 546]
“+++” (≥50 = +++) | 547 (TLDITPHTV; listed as Homo sapiens) [compound 547]
“++” (≥20% = ++) | 548 (ALWENPESGEL; listed as Homo sapiens) [compound 548]
“+++” (≥50 = +++) | 549 (AMLENASDIKL; listed as Homo sapiens) [compound 549]
“+++” (≥50 = +++) | 550 (FLYDEIEAEVNL; listed as Homo sapiens) [compound 550]
“+++” (≥50 = +++) | 551 (KLYESLLPFA; listed as Homo sapiens) [compound 551]
“++++” (≥75% = ++++) | 552 (GLLDLPFRVGV; listed as Homo sapiens) [compound 552]
“++++” (≥75% = ++++) | 553 (SLLNQDLHWSL; listed as Homo sapiens) [compound 553]
“+++” (≥50 = +++) | 554 (LLMPSSEDLLL; listed as Homo sapiens) [compound 554]
“+++” (≥50 = +++) | 555 (YVLEGLKSV; listed as Homo sapiens) [compound 555]
“+++” (≥50 = +++) | 556 (FLTDLEDLTL; listed as Homo sapiens) [compound 556]
“+++” (≥50 = +++) | 557 (KLYDDMIRL; listed as Homo sapiens) [compound 557]
“+++” (≥50 = +++) | 558 (GLLENIPRV; listed as Homo sapiens) [compound 558]
“++” (≥20% = ++) | 559 (VTVPPGPSL; listed as Homo sapiens) [compound 559]
“+++” (≥50 = +++) | 560 (ALWDIETGQQTTT; listed as Homo sapiens) [compound 560]
“+++” (≥50 = +++) | 561 (YLQLTQSEL; listed as Homo sapiens) [compound 561]
“+++” (≥50 = +++) | 562 (YLEELPEKLKL; listed as Homo sapiens) [compound 562]

Peptide exchange | Substance
“+++” (≥50 = +++) | 563 (WLLPYNGVTV; listed as Homo sapiens) [compound 563]
“+++” (≥50 = +++) | 564 (TVTNAVVTV; listed as Homo sapiens) [compound 564]
“++” (≥20% = ++) | 565 (ALQETPTSV; listed as Homo sapiens) [compound 565]
“++” (≥20% = ++) | 566 (VIADGGIQNV; listed as Homo sapiens) [compound 566]
“+++” (≥50 = +++) | 567 (SLLPLDDIVRV; listed as Homo sapiens) [compound 567]
“++++” (≥75% = ++++) | 568 (TLYDIAHTPGV; listed as Homo sapiens) [compound 568]
“+++” (≥50 = +++) | 569 (KLVDRTWTL; listed as Homo sapiens) [compound 569]
“++” (≥20% = ++) | 570 (ALANQIPTV; listed as Homo sapiens) [compound 570]
“+++” (≥50 = +++) | 571 (LLLTTIPQI; listed as Homo sapiens) [compound 571]
“+++” (≥50 = +++) | 572 (ALADLIEKELSV; listed as Homo sapiens) [compound 572]
“+++” (≥50 = +++) | 573 (ILVANAIVGV; listed as Homo sapiens) [compound 573]
“++” (≥20% = ++) | 574 (YLLQEPPRTV; listed as Homo sapiens) [compound 574]
“+++” (≥50 = +++) | 575 (YLISQVEGHQV; listed as Homo sapiens) [compound 575]
“++++” (≥75% = ++++) | 576 (ILLNNSGQIKL; listed as Homo sapiens) [compound 576]
“+++” (≥50 = +++) | 577 (VMFEDGVLMRL; listed as Homo sapiens) [compound 577]
“+++” (≥50 = +++) | 578 (FLDPGGPMMKL; listed as Homo sapiens) [compound 578]
“++” (≥20% = ++) | 579 (NLMEMVAQL; listed as Homo sapiens) [compound 579]
“++” (≥20% = ++) | 580 (LLMENAERV; listed as Homo sapiens) [compound 580]
“+++” (≥50 = +++) | 582 (TLCDVILMV; listed as Homo sapiens) [compound 582]
“+++” (≥50 = +++) | 583 (ILANDGVLLAA; listed as Homo sapiens) [compound 583]
“+++” (≥50 = +++) | 584 (ALAEVAAMENV; listed as Homo sapiens) [compound 584]
“++++” (≥75% = ++++) | 585 (ALWDLAADKQTL; listed as Homo sapiens) [compound 585]
“+++” (≥50 = +++) | 586 (KLKPGDLVGV; listed as Homo sapiens) [compound 586]
“+++” (≥50 = +++) | 587 (VMNDRLYAI; listed as Homo sapiens) [compound 587]
“+++” (≥50 = +++) | 588 (SLLPLSHLV; listed as Homo sapiens) [compound 588]
“+++” (≥50 = +++) | 589 (KLYPQLPAEI; listed as Homo sapiens) [compound 589]

Peptide exchange | Substance
“++” (≥20% = ++) | 590 (SLIEKLWQT; listed as Homo sapiens) [compound 590]
“+++” (≥50 = +++) | 591 (SMAELDIKL; listed as Homo sapiens) [compound 591]
“+++” (≥50 = +++) | 592 (RLLSAAENFL; listed as Homo sapiens) [compound 592]
“+++” (≥50 = +++) | 593 (GLPRFGIEMV; listed as Homo sapiens) [compound 593]
“+++” (≥50 = +++) | 594 (IMLKGDNITL; listed as Homo sapiens) [compound 594]
“+++” (≥50 = +++) | 595 (VLLSIYPRV; listed as Homo sapiens) [compound 595]
“+++” (≥50 = +++) | 596 (ALLDQTKTLAESAL; listed as Homo sapiens) [compound 596]
“+++” (≥50 = +++) | 597 (KLLEGQVIQL; listed as Homo sapiens) [compound 597]
“+++” (≥50 = +++) | 598 (FLFPHSVLV; listed as Homo sapiens) [compound 598]
“+++” (≥50 = +++) | 599 (YLLNDASLISV; listed as Homo sapiens) [compound 599]
“+++” (≥50 = +++) | 600 (ALAAPDIVPAL; listed as Homo sapiens) [compound 600]
“+++” (≥50 = +++) | 601 (SAFPFPVTV; listed as Homo sapiens) [compound 601]
“++++” (≥75% = ++++) | 602 (YLLEQIKLIEV; listed as Homo sapiens) [compound 602]
“+++” (≥50 = +++) | 604 (SILDRDDIFV; listed as Homo sapiens) [compound 604]
“+++” (≥50 = +++) | 605 (KLYEAVPQL; listed as Homo sapiens) [compound 605]
“+++” (≥50 = +++) | 606 (ALWETEVYI; listed as Homo sapiens) [compound 606]
“+++” (≥50 = +++) | 607 (RLYSGISGLEL; listed as Homo sapiens) [compound 607]
“+++” (≥50 = +++) | 608 (SLLSVSHAL; listed as Homo sapiens) [compound 608]
“+++” (≥50 = +++) | 609 (ALWKQLLEL; listed as Homo sapiens) [compound 609]
“+++” (≥50 = +++) | 610 (LLAPTPYIIGV; listed as Homo sapiens) [compound 610]
“++++” (≥75% = ++++) | 611 (YLLDDGTLVV; listed as Homo sapiens) [compound 611]
“+++” (≥50 = +++) | 612 (YLYNEGLSV; listed as Homo sapiens) [compound 612]
“+++” (≥50 = +++) | 613 (RLLPPGAVVAV; listed as Homo sapiens) [compound 613]
“+++” (≥50 = +++) | 614 (LLLPDQPPYHL; listed as Homo sapiens) [compound 614]
“++” (≥20% = ++) | 615 (VLPPDTDPA; listed as Homo sapiens) [compound 615]

Reference: patent US10738094B2, “Peptides and combination of peptides for use in immunotherapy against ovarian cancer and other cancers” (immatics biotechnologies GmbH, priority 2015, dated 2020)
